# Experimental data taken from US20070025992A1 (MOCHIDA PHARMACEUTICAL, published 2007).
# T1: GPVI-Fc (fusion protein of the extracellular domain of human GPVI and the Fc fragment of human IgG1) (human, UniProt Q9HCN6 21-267)
# T1 construct: extracellular domain; also called human soluble GPVI-Fc; GPVI-hFc; not shown: human IgG1 Fc domain from plasmid pM1304 (printed as '506 amino acids'), joined in frame through a BamHI site
# T1 sequence (looked up): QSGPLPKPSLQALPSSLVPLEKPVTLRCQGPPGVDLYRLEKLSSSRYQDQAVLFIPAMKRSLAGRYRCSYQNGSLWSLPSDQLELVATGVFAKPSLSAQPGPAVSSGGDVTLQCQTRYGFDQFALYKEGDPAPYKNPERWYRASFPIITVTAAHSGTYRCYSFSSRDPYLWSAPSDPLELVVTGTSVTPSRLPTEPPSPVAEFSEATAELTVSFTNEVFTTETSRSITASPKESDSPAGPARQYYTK
# Key:
# [1] = target: T1, GPVI-Fc (fusion protein of the …); test: ELISA on immobilized GPVI-Fc (0.25 µg/well), 20 ng purified antibody, peroxidase-labeled anti-human kappa or lambda antibody, absorbance at 450 nm
# Procedure: GPVI binding activity of the purified antibody that was obtained in EXAMPLE 2 was assayed by the ELISA method that was described in EXAMPLE 2. As substitute for the culture supernatant of hybridoma in EXAMPLE 2, 20 ng of the purified anti-GPVI monoclonal human antibody prepared in EXAMPLE 2 was added, and as a control, purified human IgM (Cappel) was used.
# Thus it was confirmed that the prepared antibody specifically recognizes GPVI.
# [2] = target: T1, GPVI-Fc (fusion protein of the …); test: SPR (BIACORE3000), GPVI-Fc immobilized on CM5 chip
Binder,binding result [1],Kd [2] [nM]
"#2-37 (antibody, V domains shown, Human monoclonal antibody from a hybridoma; also called clone #2-37; #2-37 antibody) VH: EVQLVESGGGLVKPGGSLRLSCAASGFTFSDYYMSWIRQAPGKGLEWVSYITSSSSYTNYADSVKGRFTISRDNAKNSLYLQMNSLRAEDTAVYYCARDRAVRGVIIIRPPDYWGQGTLVTVSS VL: QSALTQPASVSGSPGQSITISCTGTSSDVGGYNYVSWYQQHPGKAPKLMIYDVSNRPSGVSNRFSGSKSGNTASLTISGLQAEDEADYYCSSYTSSSTLVFGGGTKLTVL",binds,
"#2-4 antibody (anti-GPVI monoclonal human antibody produced by hybridoma clone #2-4) (antibody, V domains shown) VH: not shown VL: QSVLTQPPSVSAAPGQKVTISCSGSSSNIGNNYVSWYQQLPGTAPKLLIYDNNKRPSGIPDRFSGSKSGTSATLGITGLQTGDEADYYCGTWDSSLSAGVFGGGTKLTVL",,41.3
